How the values were obtained:
[1] = biological target: ParB 65–139 (C-terminal DNA-binding RHH domain of pCXC100 ParB) (Leifsonia xyli subsp. cynodontis (plasmid pCXC100)) (UniProt Q6ABV9); experiment: crystal structure
ParB 65-139 (RHH domain) [2] = biological target: T1, ParB 65-139 (RHH domain) (Leifsonia xyli subsp. cynodontis …, UniProt Q6EEF9 65-139); experiment: EMSA
T1 sequence: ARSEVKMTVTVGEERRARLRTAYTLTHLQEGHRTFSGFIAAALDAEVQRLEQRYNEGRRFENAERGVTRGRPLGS

ParB 65-139 (RHH domain) [3] = biological target: T1, ParB 65-139 (RHH domain); experiment: ITC
ParB 65-139 (RHH domain) [4] = biological target: T1, ParB 65-139 (RHH domain); experiment: ITC; remark: listed apart in the source
ParB 65-139 (RHH domain) [5] = biological target: T1, ParB 65-139 (RHH domain); experiment: EMSA; remark: listed apart in the source
ParB 65-139 (RHH domain) [6] = biological target: T1, ParB 65-139 (RHH domain); experiment: EMSA; remark: listed apart in the source
ParB 65-139 (RHH domain) [7] = biological target: T1, ParB 65-139 (RHH domain); experiment: ITC; remark: listed apart in the source
ParB 65-139 (RHH domain) [8] = biological target: T1, ParB 65-139 (RHH domain); experiment: EMSA; remark: listed apart in the source
ParB 65-139 (RHH domain) [9] = biological target: T1, ParB 65-139 (RHH domain); experiment: ITC; remark: listed apart in the source
ParB 65-139 (RHH domain) [10] = biological target: T1, ParB 65-139 (RHH domain); experiment: EMSA; remark: listed apart in the source
ParB 65-139 (RHH domain) [11] = biological target: T1, ParB 65-139 (RHH domain); experiment: ITC; remark: listed apart in the source
ParB 65-139 (RHH domain) [12] = biological target: T1, ParB 65-139 (RHH domain); experiment: EMSA; remark: listed apart in the source
ParB 65-139 (RHH domain) [13] = biological target: T1, ParB 65-139 (RHH domain); experiment: ITC; remark: listed apart in the source
ParB 65-139 (RHH domain) [14] = biological target: T1, ParB 65-139 (RHH domain); experiment: EMSA; remark: listed apart in the source

Question: “ParB 65–139 (C-terminal DNA-binding RHH domain of pCXC100 ParB) (from UniProt Q6ABV9 65-139) (domain or fragment)” was tested. Which stoichiometry N [1] did it give?
Answer: 2

B1: R4-18-3 (dsDNA)
DNA 1: GGTGGAAAAGCCAGAAAC
DNA 2: GTTTCTGGCTTTTCCACC
Question: Does B1 bind (ParB 65-139 (RHH domain) [2])?
Answer: binds

B2: R4-18 (dsDNA)
DNA 1: GGAAAAGCCAGAAACAGT
DNA 2: ACTGTTTCTGGCTTTTCC
Question: Which results are given for B2?
Answer: Kd (ParB 65-139 (RHH domain) [3]): 87 ± 59 nM; Kd (ParB 65-139 (RHH domain) [4]): 60 ± 12 nM

B3: R2R3-18 (dsDNA)
DNA 1: AGTAGGAATAGGTGGAAA
DNA 2: TTTCCACCTATTCCTACT
Question: Does B3 bind (ParB 65-139 (RHH domain) [5])?
Answer: binds

B4: R4-18+3 (dsDNA)
DNA 1: AAAGCCAGAAACAGTGGG
DNA 2: CCCACTGTTTCTGGCTTT
Question: Does B4 bind (ParB 65-139 (RHH domain) [2])?
Answer: binds

B5: R4-18-2 (dsDNA)
DNA 1: GTGGAAAAGCCAGAAACA
DNA 2: TGTTTCTGGCTTTTCCAC
Question: Does B5 bind (ParB 65-139 (RHH domain) [2])?
Answer: binds

B6: 2R3'-27 (dsDNA)
DNA 1: GGAAAAGGTGGAAAAGGTGGAAAAGGT
DNA 2: ACCTTTTCCACCTTTTCCACCTTTTCC
Question: For B6, which Kd (ParB 65-139 (RHH domain) [6]) is on record?
Answer: 112 nM

B7: R9-18 (dsDNA)
DNA 1: GGAATTGTTTGCTACGGT
DNA 2: ACCGTAGCAAACAATTCC
Question: How did the Kd (ParB 65-139 (RHH domain) [7]) turn out when B7 was run?
Answer: 17 ± 6 nM

Question: And the Kd (ParB 65-139 (RHH domain) [3])?
Answer: 11 ± 9 nM

B8: 1R3'-18 (dsDNA)
DNA 1: GGAAAAGGTGGAAAAGGT
DNA 2: ACCTTTTCCACCTTTTCC
Question: Does B8 bind (ParB 65-139 (RHH domain) [8])?
Answer: binds

B9: R0-18 (dsDNA)
DNA 1: TGCTCGATCTGGCTATCC
DNA 2: GGATAGCCAGATCGAGCA
Question: Does B9 bind (ParB 65-139 (RHH domain) [9])?
Answer: no binding

B10: R4-18+1 (dsDNA)
DNA 1: GAAAAGCCAGAAACAGTG
DNA 2: CACTGTTTCTGGCTTTTC
Question: Does B10 bind (ParB 65-139 (RHH domain) [10])?
Answer: binds

B11: R3-18-10A (dsDNA)
DNA 1: GGAATAGGTAGAAAAGCC
DNA 2: GGCTTTTCTACCTATTCC
Question: For B11, which Kd (ParB 65-139 (RHH domain) [11]) is on record?
Answer: 30 ± 10 nM

B12: R4-18+4 (dsDNA)
DNA 1: AAGCCAGAAACAGTGGGA
DNA 2: TCCCACTGTTTCTGGCTT
Question: Does B12 bind (ParB 65-139 (RHH domain) [2])?
Answer: binds

B13: R2R3-27 (dsDNA)
DNA 1: AGTAAAGTAGGAATAGGTGGAAAAGCC
DNA 2: GGCTTTTCCACCTATTCCTACTTTACT
Question: Does B13 bind (ParB 65-139 (RHH domain) [12])?
Answer: binds

B14: R4-18-1 (dsDNA)
DNA 1: TGGAAAAGCCAGAAACAG
DNA 2: CTGTTTCTGGCTTTTCCA
Question: Does B14 bind (ParB 65-139 (RHH domain) [10])?
Answer: binds

B15: R3-18 (dsDNA)
DNA 1: GGAATAGGTGGAAAAGCC
DNA 2: GGCTTTTCCACCTATTCC
Question: What does the source list for B15?
Answer: Kd (ParB 65-139 (RHH domain) [3]): 31 ± 12 nM; Kd (ParB 65-139 (RHH domain) [4]): 37 ± 10 nM; Kd (ParB 65-139 (RHH domain) [13]): 30 ± 10 nM

B16: 2R6'-27 (dsDNA)
DNA 1: GGGTAAGATGGGTAAGATGGGTAAGAT
DNA 2: ATCTTACCCATCTTACCCATCTTACCC
Question: For B16, which Kd (ParB 65-139 (RHH domain) [14]) is on record?
Answer: 877 nM

B17: R11-18 (dsDNA)
DNA 1: AGAACACGCCGAACGGCC
DNA 2: GGCCGTTCGGCGTGTTCT
Question: Does B17 bind (ParB 65-139 (RHH domain) [9])?
Answer: no binding

B18: 1R6'-18 (dsDNA)
DNA 1: GGGTAAGATGGGTAAGAT
DNA 2: ATCTTACCCATCTTACCC
Question: Does B18 bind (ParB 65-139 (RHH domain) [8])?
Answer: binds

B19: R10-18 (dsDNA)
DNA 1: TGCTACGGTAGAACACGC
DNA 2: GCGTGTTCTACCGTAGCA
Question: Does B19 bind (ParB 65-139 (RHH domain) [9])?
Answer: no binding

Reference: publication PMC3074162
